Laboratory results reported in US20020034812.

T1: 35S-methionine-labeled His6-tagged murine caspase-14
T1 sequence: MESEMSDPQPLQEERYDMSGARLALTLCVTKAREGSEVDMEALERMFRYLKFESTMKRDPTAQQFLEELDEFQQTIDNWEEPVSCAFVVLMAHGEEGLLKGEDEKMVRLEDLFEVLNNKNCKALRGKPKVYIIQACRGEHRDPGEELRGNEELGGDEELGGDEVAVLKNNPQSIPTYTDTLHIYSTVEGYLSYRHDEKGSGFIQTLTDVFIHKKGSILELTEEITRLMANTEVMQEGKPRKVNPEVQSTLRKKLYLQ

T2: radiolabeled murine caspase-3 (UniProt P70677)
T2 sequence: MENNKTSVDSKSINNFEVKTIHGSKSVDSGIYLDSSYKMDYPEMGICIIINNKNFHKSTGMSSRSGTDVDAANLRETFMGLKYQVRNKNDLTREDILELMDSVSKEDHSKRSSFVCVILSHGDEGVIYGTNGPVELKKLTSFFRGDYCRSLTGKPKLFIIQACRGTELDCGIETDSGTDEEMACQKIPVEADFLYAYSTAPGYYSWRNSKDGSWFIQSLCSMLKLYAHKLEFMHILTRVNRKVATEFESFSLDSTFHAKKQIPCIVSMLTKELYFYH

T3: 35S-methionine-labeled His6-tagged murine caspase-14
T3 chain: T1 sequence

B1: purified murine caspase-6 (protein)
chain: GFYKSREVFDPAEQYKMDHKRRGVALIFNHERFFWHLTLPERRGTNADRDNLTRRFSDLGFEVKCFNDLRAEELLLKIHEVSTSSHIDADCFICVFLSHGEGNHVYAYDAKIEIQTLTGLFKGDKCQSLVGKPKIFIIQACRGSQHDVPVVPLDMVDHQTDKLDNVTQVDAASVYTLPAGADFLMCYSVAEGYYSHRETVNGSWYIQDLCEMLARYGSSLEFTELLTLVNRKVSQRRVDFCKDPDAIGKKQVPCFASMLTKKLHFCPKPSK
B2: purified murine caspase-11 (protein)
chain: PGSHHGEANLEMEEPEESLNTLKLCSPEEFTRLCREKTQEIYPIKEANGRTRKALIICNTEFKHLSLRYGANFDIIGMKGLLEDLGYDVVVKEELTAEGMESEMKDFAALSEHQTSDSTFLVLMSHGTLHGICGTMHSEKTPDVLQYDTIYQIFNNCHCPGLRDKPKVIIVQACRGGNSGEMWIRESSKPQLCRGVDLPRNMEADAVKLSHVEKDFIAFYSTTPHHLSYRDKTGGSYFITRLISCFRKHACSCHLFDIFLKVQQSFEKASIHSQMPTIDRATLTRYFYLFPGN
B3: purified murine caspase-2 (protein)
chain: GPPCLLVKPCTPEFYQAHYQLAYRLQSQPRGLALVLSNVHFTGEKDLEFRSGGDVDHTTLVTLFKLLGYNVHVLHDQTAQEMQEKLQNFAQLPAHRVTDSCVVALLSHGVEGGIYGVDGKLLQLQEVFRLFDNANCPSLQNKPKMFFIQACRGDETDRGVDQQDGKNHTQSPGCEESDAGKEELMKMRLPTRSDMICGYACLKGNAAMRNTKRGSWYIEALTQVFSERACDMHVADMLVKVNALIKEREGYAPGTEFHRCKEMSEYCSTLCQQLYLFPGYPPT
B4: purified murine caspase-3 (protein)
chain: SGIYLDSSYKMDYPEMGICIIINNKNFHKSTGMSSRSGTDVDAANLRETFMGLKYQVRNKNDLTREDILELMDSVSKEDHSKRSSFVCVILSHGDEGVIYGTNGPVELKKLTSFFRGDYCRSLTGKPKLFIIQACRGTELDCGIETDSGTDEEMACQKIPVEADFLYAYSTAPGYYSWRNSKDGSWFIQSLCSMLKLYAHKLEFMHILTRVNRKVATEFESFSLDSTFHAKKQIPCIVSMLTKELYFYH
B5: purified murine granzyme B (protein)
chain: IIGGHEVKPHSRPYMALLSIKDQQPEAICGGFLIREDFVLTAAHCEGSIINVTLGAHNIKEQEKTQQVIPMVKCIPHPDYNPKTFSNDIMLLKLKSKAKRTRAVRPLNLPRRNVNVKPGDVCYVAGWGRMAPMGKYSNTLQEVELTVQKDRECESYFKNRYNKTNQICAGDPKTKRASFRGDSGGPLVCKKVAAGIVSYGYKDGSPPRAFTKVSSFLSWIKKTMKSS
B6: purified murine caspase-1 (protein)
chain: NKEDGTFPGLTGTLKFCPLEKAQKLWKENPSEIYPIMNTTTRTRLALIICNTEFQHLSPRVGAQVDLREMKLLLEDLGYTVKVKENLTALEMVKEVKEFAACPEHKTSDSTFLVFMSHGIQEGICGTTYSNEVSDILKVDTIFQMMNTLKCPSLKDKPKVIIIQACRGEKQGVVLLKDSVRDSEEDFLTDAIFEDDGIKKAHIEKDFIAFCSSTPDNVSWRHPVRGSLFIESLIKHMKEYAWSCDLEDIFRKVRFSFEQPEFRLQMPTADRVTLTKRFYLFPGH
B7: purified murine caspase-7 (protein)
chain: AKPDRSSIISSILLKKKRNASAGPVRTGRDRVPTYLYRMDFQKMGKCIIINNKNFDKATGMDVRNGTDKDAGALFKCFQNLGFEVTVHNDCSCAKMQDLLRKASEEDHSNSACFACVLLSHGEEDLIYGKDGVTPIKDLTAHFRGDRCKTLLEKPKLFFIQACRGTELDDGIQADSGPINDIDANPRNKIPVEADFLFAYSTVPGYYSWRNPGKGSWFVQALCSILNEHGKDLEIMQILTRVNDRVARHFESQSDDPRFNEKKQIPCMVSMLTKELYFSR

Assays:
[1] = system: T1, 35S-methionine-labeled His6-tagged murine caspase-14
[2] = molecular target: T2, radiolabeled murine caspase-3
[3] = molecular target: T3, 35S-methionine-labeled His6-tagged …

Row | Molecule | in vitro cleavage of 35S-methionine-labeled His6-tagged murine caspase-14, SDS-PAGE and autoradiography [1] | efficiency of proteolysis by serial 1:5 dilution of caspase-8 lysate, caspase-3 against caspase-14 as substrate [2] | in vitro cleavage of radiolabeled caspase-14 [3]
1 | murine caspase-8 (prodomain-deleted, lysate of E. coli expressing pLT-DpromCASP-8) | murine caspase-8 cleaved this 35.5 kDa murine caspase-14 weakly into 24 kDa (p18) and 11 kDa (p11) fragments | proteolytic activity of caspase-8 was at least 1000 times more efficient on caspase-3 than on murine caspase-14 | –
2 | B1 | – | – | none of the active enzyme preparations were able to cleave caspase-14
3 | B2 | – | – | none of the active enzyme preparations were able to cleave caspase-14
4 | B3 | – | – | none of the active enzyme preparations were able to cleave caspase-14
5 | B4 | – | – | none of the active enzyme preparations were able to cleave caspase-14
6 | B5 | – | – | none of the active enzyme preparations were able to cleave caspase-14
7 | B6 | – | – | none of the active enzyme preparations were able to cleave caspase-14
8 | B7 | – | – | none of the active enzyme preparations were able to cleave caspase-14
